Laboratory results as given in patent US7777010 (CRUCELL HOLLAND B V, dated 2010).

T1: purified recombinant Ep-CAM produced in insect cells (UniProt P16422 24-265, limits assumed)
T1 construct: Coupled to a CM5 sensor chip by NHS/EDC; Neither the species nor the construct limits are stated at this place
T1 sequence (looked up): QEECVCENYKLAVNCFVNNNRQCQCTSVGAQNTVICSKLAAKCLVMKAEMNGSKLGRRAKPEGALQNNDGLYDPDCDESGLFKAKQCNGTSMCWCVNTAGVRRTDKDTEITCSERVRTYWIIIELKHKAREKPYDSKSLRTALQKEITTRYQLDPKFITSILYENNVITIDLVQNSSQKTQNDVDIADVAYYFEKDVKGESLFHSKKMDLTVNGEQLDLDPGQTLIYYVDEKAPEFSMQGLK


What was measured:
[1] = target: T1, purified recombinant Ep-CAM produced in …; assay: SPR (BIAcore), recombinant Ep-CAM coupled to CM5 chip, IgG1 in flow
Experimental: (§1) In separate BIAcore flow cells, approximately 160, 1565 and 4154 resonance units of purified recombinant Ep-CAM produced in insect cells (kindly provided by Dr. D. Herlyn, Wistar institute, Philadelphia, Pa.) (25 µg/ml) in 10 mM acetate buffer (pH 4.0) were coupled to a CM5 sensor chip using NHS/EDC coupling chemistry. Association and dissociation were measured under continuous flow of […] using a concentration range from 100 to 1 nM.
(§2) The kinetic association and dissociation rates of the original huMab UBS-54 and the mutant huMabs A37 and C52 were determined by surface plasmon resonance (Table 1). […] The improvement was mainly the result of a lower […].

[2] = target: T1, purified recombinant Ep-CAM produced in …; assay: SPR (BIAcore), recombinant Ep-CAM coupled to CM5 chip
Experimental: as §1, §2

Kd [1] [nM]	koff [1] [s⁻¹]	kon [1] [M⁻¹ s⁻¹]	fold increase in affinity against the original huMab UBS-54 [2] [fold]	fold improvement of binding affinity against the original UBS-54 huMab [2] [fold]	Binder
6	0.0006	100000			huMab UBS-54 (antibody, V domains shown, Tested as an intact human IgG1/kappa huMab made in BHK cells (VH1 / Vk2 V regions); FITC-labelled in the spheroid experiment; also called original huMab UBS-54; original UBS-54) VH: QVQLVQSGAEVKKPGSSVRVSCKASGGTFSSYAISWVRQAPGQGLEWMGGIIPIFGTANYAQKFQGRVTITADESTSTAYMELSSLRSEDTAVYYCARDPFLHYWGQGTLVT VL: not shown
1.6	0.00041	250000	~4		huMab A37 (antibody, V domains shown, Tested as an intact human IgG1/kappa huMab made in BHK cells; It has the UBS-54 VH with a shuffled Vk3 light chain; also called mutant A37) VH: QVQLVQSGAEVKKPGSSVRVSCKASGGTFSSYAISWVRQAPGQGLEWMGGIIPIFGTANYAQKFQGRVTITADESTSTAYMELSSLRSEDTAVYYCARDPFLHYWGQGTLVT VL: EIELTQSPGTLSLSPGERATLSCRASQTISNNYLAWYQQKRGQAPRLLIYAASSRATGIPDRFSGTGSGTDFTLTISRLEPEDFAVYYCAQGELYPRQFGGGTKLEI
0.4	0.00011	270000		15	huMab C52 (antibody, V domains shown, Tested as an intact human IgG1/kappa huMab made in BHK cells; It has the B43 VH with a DNA-shuffled A37-derived Vk light chain; FITC-labelled in the spheroid experiment; also called mutant C52) VH: QVQLVQSGAEVKKPGASVKVSCKASGGTFSSYAISWVRQAPGQGLEWMGGIVPIFGTANYAQKFQGRVTITADESTSTAYMELSSLRSEDTAVYYCARDPFLHYWGQGTLVT VL: EIELTQSPGTLSLSPGERATLSCRASQSVSSSYLAWYQQKPGQAPRLLIYGASSRATGIPDRFSGSGSGTDFTLTISRLEPEDFAVYYCAQGELYPRQFGGGTKLDI
